# Columns and labels:
# [1] = molecular target: PfCen1-6His (P. falciparum centrin 1, 6His-tagged) (P. falciparum); test: turbidity (light scattering); range of PfCen1-6His concentrations to find the saturation concentration; CaCl2 to 2 mM; 50 mM BisTris pH 7.1, 37°C, no salt or PEG
# [2] = molecular target: PfCen1-6His (P. falciparum centrin 1, 6His-tagged) (P. falciparum); test: turbidity (light scattering); PfCen1-6His and PfCen3-6His at individually subcritical concentrations, alone with BSA to a total protein concentration of >20 μM or as a mixture; calcium, then EDTA; 50 mM BisTris pH 7.1, 37°C
# [3] = molecular target: PfCen3-6His (P. falciparum centrin 3, 6His-tagged) (P. falciparum); test: as above
# [4] = molecular target: the molecule itself; test: light microscopy of droplets in purified protein solutions; self-assembly into droplets; concentrated recombinant centrin (100-200 μM), 2 mM CaCl2 added, then 10 mM EDTA; 50 mM BisTris pH 7.1, 37°C
molecule,measurement,setting,value
"PfCen1-6His (P. falciparum centrin 1, 6His-tagged) (natural protein)",csat (critical saturation concentration),[1],10 to 15 µM
same,csat (saturation concentration),[2],10 µM
"PfCen3-6His (P. falciparum centrin 3, 6His-tagged) (natural protein)",csat (saturation concentration),[3],10 µM
"ScCdc31-6His (Saccharomyces cerevisiae centrin Cdc31) (natural protein, UniProt P06704 1-161, looked up, Saccharomyces cerevisiae centrin Cdc31, 161 aa, 19 kDa; source: recombinant, pET-28 construct from a synthetic codon optimized gene) MSKNRSSLQSGPLNSELLEEQKQEIYEAFSLFDMNNDGFLDYHELKVAMKALGFELPKREILDLIDEYDSEGRHLMKYDDFYIVMGEKILKRDPLDEIKRAFQLFDDDHTGKISIKNLRRVAKELGETLTDEELRAMIEEFDLDGDGEINENEFIAICTDS",binding result,[4],binds
"HsCen2-6His (human centrin 2, 6His-tagged) (natural protein, UniProt P41208 1-172, looked up, human centrin 2 (HsCen2); mass spectrometry confirmed full length except for cleavage of methionine 1; source: E. coli BL21-CodonPlus (DE3), pET-28, purified (Ni-NTA); not shown: 6His, C-terminal, kept) MASNFKKANMASSSQRKRMSPKPELTEEQKQEIREAFDLFDADGTGTIDVKELKVAMRALGFEPKKEEIKKMISEIDKEGTGKMNFGDFLTVMTQKMSEKDTKEEILKAFKLFDDDETGKISFKNLKRVAKELGENLTDEELQEMIDEADRDGDGEVSEQEFLRIMKKTSLY",binding result,[4],binds
